Results as given in article PMC11388181.

What was measured:
[1] = Western blot, B7-H5/GAPDH, HEK293 lysates; conditions: glycan lost; control: wild type
[2] = Confocal immunofluorescence, HEK293; conditions: glycan lost; control: wild type

With B7-H5/VISTA: N49A the expression_or_secretion [1] was “no change” and the localisation_or_trafficking [2] was “no change”.
For B7-H5/VISTA: N91A, the expression_or_secretion [1] was “no change” and the localisation_or_trafficking [2] was “no change”.
For B7-H5/VISTA: N108A, the expression_or_secretion [1] was “no change” and the localisation_or_trafficking [2] was “no change”.
With B7-H5/VISTA: N128A the expression_or_secretion [1] was “no change” and the localisation_or_trafficking [2] was “no change”.
With B7-H5/VISTA: N135A the expression_or_secretion [1] was “no change” and the localisation_or_trafficking [2] was “no change”.
